Experimental data taken from article PMC4458873.

Molecular target: Purified recombinant Syrian hamster vimentin (Syrian hamster) (UniProt P02544)
Assay: cross-linking; vimentin at 3 μM, preincubated without or with 150 mM NaCl, 20 μM DBB for 1 h at 37 °C; 7.5% SDS-PAGE and WB

A fold cross-linked dimer, polymerized versus non-polymerized vimentin of 3.9 fold was found for “Purified recombinant Syrian hamster vimentin (from UniProt P02544 1-465) (natural protein)” in this work.
